Assay results: patent US20110076723A1, “ANTIBODY-PEPTIDE FUSED SYNERGIBODY” (SAMSUNG ELECTRONICS CO., LTD., priority 2008, published 2011)

T1: recombinant hAng-2 (recombinant protein with His tag attached to human Ang-2; R&D Systems) (human, UniProt O15123 19-496)
T1 construct: also called angiopoietin-2; ANGPT2
T1 sequence (looked up): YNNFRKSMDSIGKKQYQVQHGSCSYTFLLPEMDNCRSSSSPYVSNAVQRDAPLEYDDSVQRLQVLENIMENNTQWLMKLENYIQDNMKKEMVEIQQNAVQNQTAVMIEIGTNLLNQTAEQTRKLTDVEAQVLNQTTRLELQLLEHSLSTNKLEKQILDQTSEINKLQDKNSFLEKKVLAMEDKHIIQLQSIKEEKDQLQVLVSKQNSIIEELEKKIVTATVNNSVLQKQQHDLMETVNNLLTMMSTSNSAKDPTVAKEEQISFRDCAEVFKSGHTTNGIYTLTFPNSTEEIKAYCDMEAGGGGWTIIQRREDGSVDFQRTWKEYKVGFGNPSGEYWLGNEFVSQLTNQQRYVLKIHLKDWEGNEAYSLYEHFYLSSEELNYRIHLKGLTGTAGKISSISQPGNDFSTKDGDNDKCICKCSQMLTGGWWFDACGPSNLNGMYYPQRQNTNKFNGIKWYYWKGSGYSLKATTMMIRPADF

T2: recombinant hAng-2 (Homo sapiens, UniProt O15123)
T2 construct: His tag; purchased R&D Systems
T2 sequence (O15123 19-496): T1 sequence (looked up)

B1: SAITAng-2-2 (antibody, V domains shown)
VH: QVQLQQSGPELVKPGASVKMSCKASGYTFTDYVISWVKQRTGQGLEWIGEIYPGSGSTYYNEKFKGKASLTADKSSNTAYMQLSSLTSADSAVYFCVRSRGDYYAMDYWGQGTSVTVSS
VL: DIQMTQSPSSLSASLGGKVTITCKASQDINNYITWYQHKPGKGPRLLIHYTSTLQPGIPSRFSGSGSGRDYSFSISNLEPEDIATYYCLQYDNLLTFGGGTKLEIK
notes: Mouse monoclonal anti-Ang-2 antibody purified from hybridoma culture
B2: SAITAng-2-3 (antibody, V domains shown)
VH: DVQLVESGGGLVQPGGSRKLSCAASGFTFSSFGMHWVRQAPEKGLEWVAYISSDSSTIYYADTVKGRFTISRDNPKNTLFLQMTSLRSEDTAMYYCAREGGYDDYYAMDYWGQGTSVTVSS
VL: DIQMTQSPASQSASLGESVTITCLASQTIGTWLAWYQQKPGKSPQLLIYAATSLADGVPSRFSGSGSGTKFSFKISSLQAEDFVSYYCQQLYSIPLTFGGGTKLEIK
notes: as for B1
B3: SAITAng-2-4 (antibody, V domains shown)
VH: QVQLQQSGAELARPGASVKLSCKASGYTFTDYYINWAKQRTGQGLEWIGEIYPGSGDTYYNEKFKGKATLTADKSSSTAYMQLSSLTSEDSAVYFCARYGYKGVYFDYWGQSTTLTVSS
VL: ENVLTQSPAIMAASLGQKVTMTCSASSSVSSSYLHWYQQKSGASPKPLIHRTSNLASGVPARFSGSGSGTSYSLTISSVEAEDDATYYCQQWSGYPFTFGAGTKLELK
notes: as for B1

The molecules below were run against T1, recombinant hAng-2 (recombinant protein …) (assay: competitive ELISA; antibody titrated with 1 nM hAng-2 (His) on coated hTie2-Fc). Conditions: not given.
Procedure: A competitive ELISA is performed to assess the molecular interaction of the binders. A 96-well MaxiSorp™ flat-bottom plate (Nunc) is coated with hTie2-Fc (R&D Systems), which is a fused protein including the water-soluble extracellular portion of human Tie-2 and Fc of human IgG₁ dissolved in DMEM culture solution containing 50 μg/ml bovine serum albumin (BSA). The concentration of hTie2-Fc used as a coating material is equivalent to 75% of its maximum binding concentration with 1 nM of recombinant hAng-2 (recombinant protein with His tag attached to human Ang-2; R&D Systems). Then the plate is washed five times with Phosphate Buffer Saline (PBS) containing 0.1% Tween-20 and blocked at room temperature for two hours with PBS containing 5% BSA. Each anti-Ang-2 antibodies are diluted from 100 nM by one-fourth each time with PBS containing 1% BSA and 1 nM hAng-2 and adjusted to 6.1 pM for Ang-2:Tie-2 neutralization ELISA. 100 μl of antibody/hAng-2 solutions are placed in each corresponding well and left to react at room temperature for two hours. Then the wells are washed five times with PBS containing 0.1% Tween-20, and the anti-His antibodies (GE Healthcare) are diluted to about 1:3,000 with PBS containing 1% BSA and left to react at room temperature for one hour. Afterwards, 100 μl of goat anti-mouse-IgG-HRP (Pierce) diluted with PBS containing 1% BSA to about 1:10,000 is added to each well of the plate, left to react at room temperature for one hour, and washed with PBS containing 0.1% Tween-20 five times. Lastly, 100 μl of TMB substrate (SIGMA) is added to each well of the plate to induce color reaction, and the reaction is stopped by adding 50 μl of 5N H₂SO₄ solution. The OD₄₅₀ value is read on a plate reader (Molecular Devices).

IC50 | Molecule
1.86 nM | B1
0.822 nM | B2
1.01 nM | B3

These molecules were tested against T1, recombinant hAng-2 (recombinant protein …) (assay: SPR, BIAcore T100; hAng-2 amine-coupled on CM5, antibody 100 to 0.78125 nM). Conditions: not given.
Procedure: (§1) The SPR method using BIAcore T100 (GE Healthcare) is used to accurately measure the affinity to the Ang-2 antigens. 20 μg/ml recombinant hAng-2 (R&D Systems) is fixed on a sensor chip CM5 (GE Healthcare) using pH4.5 acetate solution and amine coupling kit (GE Healthcare). The antibodies obtained in Section 2 above are diluted to eight different concentrations down to 0.78125 nM by diluting to ½ each time starting from 100 nM. Then the antigen/antibody affinity is measured by causing the antigens to repeatedly bind and disassociate with the antibodies fixed on the sensor chip (using pH2.2 glycine-HCl solution).

Kd | koff | kon | Molecule
1.1 nM | 0.000477 s⁻¹ | 433000 M⁻¹ s⁻¹ | B1
0.603 nM | 0.000302 s⁻¹ | 501000 M⁻¹ s⁻¹ | B2
0.931 nM | 0.000477 s⁻¹ | 512000 M⁻¹ s⁻¹ | B3

Each molecule was assayed against T2, recombinant hAng-2 (assay: Affinity to Ang-2 antigen by surface plasmon resonance (BIAcore T100)). Conditions: SPR, hAng-2 on CM5 chip.
Type: binding
Procedure: as §1

Off Rate | On rate | Molecule
0.0004769 s⁻¹ | 433200 M⁻¹ s⁻¹ | B1
0.0003023 s⁻¹ | 501200 M⁻¹ s⁻¹ | B2
0.0004769 s⁻¹ | 512100 M⁻¹ s⁻¹ | B3
